B1: 320-280 (antibody, human IgG1, name in Kabat numbering, V domains shown)
VH: QVQLVQSGAEVKKPGASVKVSCKASGYTFTSYDINWVRQAPGQGLEWMGWLNPNSGNTGYAQKFQGRVTMTADRSTSTAYMELSSLRSEDTAVYYCAREVPETAAFEYWGQGTLVTVSS
VL: QSVLTQPPSVSGAPGQRVTISCTSSSSDIGAGHGVHWYQQLPGTAPKLLIEGYYNRPSGVPDRFSGSKSGTSASLTITGLLPEDEGDYYCQSYDGTLSALFGGGTKLTVLG
notes: human IgG1, lambda
B2: 320-598 (antibody, human IgG1, name in Kabat numbering, V domains shown)
VH: QVQLVQSGAEVKKPGASVKVSCKASGYTFTSYDINWVRQAPGQGLEWMGWLNPNSGNTGYAQKFQGRVTMTADRSTSTAYMELSSLRSEDTAVYYCAREVPETAAFEYWGQGTLVTVSS
VL: QSVLTQPPSVSGAPGQRVTISCTSSSSDIGAGLGVLWYQQLPGTAPKLLIEGYYNRPSGVPDRFSGSKSGTSASLTITGLLPEDEGDYYCQSFDGTLSALFGGGTKLTVLG
notes: full-length human IgG1, lambda
B3: 320-302 (antibody, human IgG1, name in Kabat numbering, V domains shown)
VH: QVQLVQSGAEVKKPGASVKVSCKASGYTFTSYDINWVRQAPGQGLEWMGWLNPNSGNTGYAQKFQGRVTMTADRSTSTAYMELSSLRSEDTAVYYCAREVPETAAFEYWGQGTLVTVSS
VL: QSVLTQPPSVSGAPGQRVTISCTSSSSDIGAGLGVAWYQQLPGTAPKLLIEGYYNRPSGVPDRFSGSKSGTSASLTITGLLPEDEGDYYCQSYDGTLSALFGGGTKLTVLG
notes: human IgG1, lambda
B4: 320-605 (antibody, human IgG1, name in Kabat numbering, V domains shown)
VH: QVQLVQSGAEVKKPGASVKVSCKASGYTFTSYDINWVRQAPGQGLEWMGWLNPNSGYTGYAQKFQGRVTMTADRSTSTAYMELSSLRSEDTAVYYCAREVPETAAFEYWGQGTLVTVSS
VL: QSVLTQPPSVSGAPGQRVTISCTSSSSDIGAALGVHWYQQLPGTAPKLLIEGYYNRPSGVPDRFSGSKSGTSASLTITGLLPEDEGDYYCQSFDGTLSALFGGGTKLTVLG
notes: as for B2
B5: 320-614 (antibody, human IgG1, name in Kabat numbering, V domains shown)
VH: QVQLVQSGAEVKKPGASVKVSCKASGYTFTSYDINWVRQAPGQGLEWMGWLNPNSGYTGYAQKFQGRVTMTADRSTSTAYMELSSLRSEDTAVYYCAREVPETAAFEYWGQGTLVTVSS
VL: QSVLTQPPSVSGAPGQRVTISCTSSSSDIGAGLGVHWYQQLPGTAPKLLIEGYYNRPSGVPDRFSGSKSGTSASLTITGLLPEDEGDYYCQSYDKTLSALFGGGTKLTVLG
notes: as for B2
B6: 320-297 (antibody, human IgG1, name in Kabat numbering, V domains shown)
VH: QVQLVQSGAEVKKPGASVKVSCKASGYTFTSYDINWVRQAPGQGLEWMGWLNPNSGNTGYAQKFQGRVTMTADRSTSTAYMELSSLRSEDTAVYYCAREVPETAAFEYWGQGTLVTVSS
VL: QSVLTQPPSVSGAPGQRVTISCTSSSSDIGAGLGHHWYQQLPGTAPKLLIEGYYNRPSGVPDRFSGSKSGTSASLTITGLLPEDEGDYYCQSYDGTLSALFGGGTKLTVLG
notes: human IgG1, lambda
B7: 320-307 (antibody, human IgG1, name in Kabat numbering, V domains shown)
VH: QVQLVQSGAEVKKPGASVKVSCKASGYTFTSYDINWVRQAPGQGLEWMGWLNPNSGNTGYAQKFQGRVTMTADRSTSTAYMELSSLRSEDTAVYYCAREVPETAAFEYWGQGTLVTVSS
VL: QSVLTQPPSVSGAPGQRVTISCTSSSSDIGAGLGVLWYQQLPGTAPKLLIEGYYNRPSGVPDRFSGSKSGTSASLTITGLLPEDEGDYYCQSYDGTLSALFGGGTKLTVLG
notes: human IgG1, lambda
B8: 320-597 (antibody, human IgG1, name in Kabat numbering, V domains shown)
VH: QVQLVQSGAEVKKPGASVKVSCKASGYTFTSYDINWVRQAPGQGLEWMGWLNPNSGNTGYAQKFQGRVTMTADRSTSTAYMELSSLRSEDTAVYYCAREVPETAAFEYWGQGTLVTVSS
VL: QSVLTQPPSVSGAPGQRVTISCTSSSSDIGAGQGVHWYQQLPGTAPKLLIEGYYNRPSGVPDRFSGSKSGTSASLTITGLLPEDEGDYYCQSFDGTLSALFGGGTKLTVLG
notes: as for B2
B9: 320-596 (antibody, human IgG1, name in Kabat numbering, V domains shown)
VH: QVQLVQSGAEVKKPGASVKVSCKASGYTFTSYDINWVRQAPGQGLEWMGWLNPNSGNTGYAQKFQGRVTMTADRSTSTAYMELSSLRSEDTAVYYCAREVPETAAFEYWGQGTLVTVSS
VL: QSVLTQPPSVSGAPGQRVTISCTSSSSDIGAGLGVHWYQQLPGTAPKLLIEGYYNRPSGVPDRFSGSKSGTSASLTITGLLPEDEGDYYCQSFDGTLSALFGGGTKLTVLG
notes: as for B2
B10: 320-603 (antibody, human IgG1, name in Kabat numbering, V domains shown)
VH: QVQLVQSGAEVKKPGASVKVSCKASGYTFTSYDINWVRQAPGQGLEWMGWLNPNSGYTGYAQKFQGRVTMTADRSTSTAYMELSSLRSEDTAVYYCAREVPETAAFEYWGQGTLVTVSS
VL: QSVLTQPPSVSGAPGQRVTISCTSSSSDIGAGLGVLWYQQLPGTAPKLLIEGYYNRPSGVPDRFSGSKSGTSASLTITGLLPEDEGDYYCQSFDGTLSALFGGGTKLTVLG
notes: as for B2
B11: 320-602 (antibody, human IgG1, name in Kabat numbering, V domains shown)
VH: QVQLVQSGAEVKKPGASVKVSCKASGYTFTSYDINWVRQAPGQGLEWMGWLNPNSGYTGYAQKFQGRVTMTADRSTSTAYMELSSLRSEDTAVYYCAREVPETAAFEYWGQGTLVTVSS
VL: QSVLTQPPSVSGAPGQRVTISCTSSSSDIGAGQGVHWYQQLPGTAPKLLIEGYYNRPSGVPDRFSGSKSGTSASLTITGLLPEDEGDYYCQSFDGTLSALFGGGTKLTVLG
notes: as for B2
B12: 320-612 (antibody, human IgG1, name in Kabat numbering, V domains shown)
VH: QVQLVQSGAEVKKPGASVKVSCKASGYTFTSYDINWVRQAPGQGLEWMGWLNPNSGNTGYAQKFQGRVTMTADRSTSTAYMELSSLRSEDTAVYYCAREVPETAAFEYWGQGTLVTVSS
VL: QSVLTQPPSVSGAPGQRVTISCTSSSSDIGAGLGVHWYQQLPGTAPKLLIEGYYNRPSGVPDRFSGSKSGTSASLTITGLLPEDEGDYYCQSWDYTLSALFGGGTKLTVLG
notes: as for B2
B13: 320-599 (antibody, human IgG1, name in Kabat numbering, V domains shown)
VH: QVQLVQSGAEVKKPGASVKVSCKASGYTFTSYDINWVRQAPGQGLEWMGWLNPNSGNTGYAQKFQGRVTMTADRSTSTAYMELSSLRSEDTAVYYCAREVPETAAFEYWGQGTLVTVSS
VL: QSVLTQPPSVSGAPGQRVTISCTSSSSDIGAGSGVHWYQQLPGTAPKLLIEGYYNRPSGVPDRFSGSKSGTSASLTITGLLPEDEGDYYCQSFDGTLSALFGGGTKLTVLG
notes: as for B2
B14: 320-600 (antibody, human IgG1, name in Kabat numbering, V domains shown)
VH: QVQLVQSGAEVKKPGASVKVSCKASGYTFTSYDINWVRQAPGQGLEWMGWLNPNSGNTGYAQKFQGRVTMTADRSTSTAYMELSSLRSEDTAVYYCAREVPETAAFEYWGQGTLVTVSS
VL: QSVLTQPPSVSGAPGQRVTISCTSSSSDIGAALGVHWYQQLPGTAPKLLIEGYYNRPSGVPDRFSGSKSGTSASLTITGLLPEDEGDYYCQSFDGTLSALFGGGTKLTVLG
notes: as for B2

Tests used:
[1] = molecular target: T1, human TL1A extracellular domain with N-terminal HIS and FLAG tag (human, UniProt O95150 72-251); assay: SPR run 3; supernatant on Protein A; TL1A 10 ug/mL; timepoint 59
T1 construct: whole entry named. ~70 kDa fraction purified by gel filtration
T1 sequence: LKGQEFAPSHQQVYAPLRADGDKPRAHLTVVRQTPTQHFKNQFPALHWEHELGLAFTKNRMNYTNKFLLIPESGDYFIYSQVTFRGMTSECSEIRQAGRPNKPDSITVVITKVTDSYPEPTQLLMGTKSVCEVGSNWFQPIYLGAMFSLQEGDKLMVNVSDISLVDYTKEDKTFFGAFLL
Summary of the method: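 The capture level was the response change at the end of loading, which varied by run. Antigen response was read before dissociation ended, double-referenced against a reference flow cell and a buffer blank.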

[2] = molecular target: T1, human TL1A extracellular domain with …; assay: SPR run 3; supernatant on Protein A; TL1A 10 ug/mL; timepoint 590
Summary of the method: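 Biacore T200 SPR with antibody (supernatant or Protein A-purified) captured on Protein A amine-coupled to a CM5 chip; capture level recorded as response change at end of capture.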

[3] = molecular target: T2, human TL1A extracellular domain with N-terminal HIS and FLAG tag (human) (UniProt O95150); assay: cell-based or functional assay
T2 sequence: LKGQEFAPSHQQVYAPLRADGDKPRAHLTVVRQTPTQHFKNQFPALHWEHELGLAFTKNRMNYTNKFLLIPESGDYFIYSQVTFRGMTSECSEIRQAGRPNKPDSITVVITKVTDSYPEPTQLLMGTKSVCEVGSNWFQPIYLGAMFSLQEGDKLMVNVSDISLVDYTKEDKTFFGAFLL

[4] = molecular target: T3, human TL1A extracellular domain with N-terminal HIS and FLAG tag (human, UniProt O95150 72-251); assay: SPR Run 9, antibody on Protein A, TL1A 5 ug/mL, timepoint 590
T3 construct: the whole entry is named; also called TNFSF15
T3 sequence: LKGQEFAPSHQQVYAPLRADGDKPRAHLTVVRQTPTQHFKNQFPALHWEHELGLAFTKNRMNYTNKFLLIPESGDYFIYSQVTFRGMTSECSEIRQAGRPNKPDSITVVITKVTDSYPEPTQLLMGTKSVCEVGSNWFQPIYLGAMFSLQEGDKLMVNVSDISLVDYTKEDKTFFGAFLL
Description: (§1) 1.5. Antibody expression and antigen binding as determined by SPR. Using a CM5 sensor chip (GE Healthcare) Protein A (Pierce) was coupled to the chip surface using an amine coupling kit (GE Healthcare). Protein A was coupled on flow cell 1 and 2 (or alternatively 3 and 4) using a BIACORE® T200. […] The amount of supernatant or purified protein (as well as the concentration) injected during the capture stage varied between runs and is specified in the header of the Tables 3-11. At the end of injection of the supernatant or purified antibody the change in response units was measured. This value was reported as Capture Level in Tables 3-11. […] The response units were measured prior to the end of the dissociation phase. […] The sensorgrams were double referenced (flow cell 2 is subtracted from flow cell 1 and a buffer blank). As there were a large number of antibody variants to screen, these were screened across different runs (Tables 3-11). […] A summary of the conditions used in each run is below:
(§2) 2.1. […] In some experiment the antibodies were purified using Protein A chromatography (See 1.4) and purified antibodies were used in BIACORE® (GE Healthcare) experiments.

[5] = molecular target: T3, human TL1A extracellular domain with …; assay: SPR Run 9, antibody on Protein A, TL1A 5 ug/mL, timepoint 44
Description: as §1, §2

Binder	TL1A Binding Level (Early) [1] [RU]	TL1A Binding Level (Late) [2] [RU]	Antibody IC50, TL1A induced caspase potency assay in TF-1 cells [3] [ng/mL]	Fold improvement over 320-179, TL1A induced caspase potency assay in TF-1 cells [3] [fold]	TL1A Binding Level (Late) [4] [RU]	TL1A Binding Level (Early) [5] [RU]
B1	228	211	6	3	–	–
B2	–	–	–	–	101	112
B3	99	74	10	2	–	–
B4	–	–	–	–	120	125
B5	–	–	–	–	111	122
B6	95	77	5	4	–	–
B7	216	200	10	4	–	–
B8	–	–	–	–	105	115
B9	–	–	–	–	85	95
B10	–	–	–	–	118	126
B11	–	–	–	–	125	131
B12	–	–	–	–	120	126
B13	–	–	–	–	103	113
B14	–	–	–	–	104	111

Reference: patent publication US20170081400A1 (CEPHALON, published 2017)
